Common to all, as to test: cell_activity; HEK 293 luciferase
Common to all, as to conditions: tags: HA, NLS

For one series, the target named is ZFP 52 QSHR2-QSHT-RSNR (Homo sapiens). On the procedure: (§1) The in vivo activity assay for a particular three-finger protein was carried out as follows. HEK 293 cells were transfected with four plasmids: 14 ng of a plasmid expressing the particular three-finger protein; 14 ng of the reporter plasmid described above; 70 ng of a plasmid that expresses GAL4-VP 16; and 1.4 ng of a plasmid that expresses Renillar luciferase. The GAL4-VP 16 activates transcription of the minimal synthetic promoter in the reporter so that the repression effected by a particular three-finger protein could be clearly detected and compared to other three-finger proteins. The plasmid expressing Renillar luciferase provides a control of transfection efficiency.
Chain of ZFP 52 QSHR2-QSHT-RSNR (Homo sapiens) (chain, as listed by the source): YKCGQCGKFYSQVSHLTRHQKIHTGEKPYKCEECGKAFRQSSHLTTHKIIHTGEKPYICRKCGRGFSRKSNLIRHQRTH
(§2) Lipofectamine (Gibco-BRL) was used for the transfection procedures. Cells were transfected at 30-50% confluency in wells of a 96 well plate. The cells were incubated for two days prior to harvesting for the luciferase assay. Then luciferase activities were measured using the Dual-Luciferase™ Reporter Assay System (Promega). The observed firefly luciferase activity was normalized using the observed level of Renilla luciferase. The extent of repression or “fold-repression” was calculated by dividing a value for normalized reporter expression in the absence of a zinc finger protein by a value for normalized reporter expression in the presence of the zinc finger protein.
(§3) A total of 153 three-finger chimeric proteins were constructed from both the “zinc finger protein-first” and the “target site-first” approaches. These proteins were tested using the transient cotransfection assay described in Example 68.

A further series deals with ZFP 60 QSNR3-QSSR1-QSNV2 (Homo sapiens). The procedure: as §1, §2, §3
Chain of ZFP 60 QSNR3-QSSR1-QSNV2 (Homo sapiens) (chain, as listed by the source): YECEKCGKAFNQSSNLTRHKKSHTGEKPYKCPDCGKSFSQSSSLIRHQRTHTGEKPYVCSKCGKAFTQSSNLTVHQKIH
Another series concerns the target ZFP 49 RSHR-QSNV2-QSHT (Homo sapiens). The procedure: as §1, §2, §3
For another series, the target named is ZFP 57 QSHR2-CSNR1-QSHT (Homo sapiens). On the procedure:
as §1, §2, §3

A further series deals with ZFP 48 RDHT-RSHR-RDER1 (Homo sapiens). On the procedure: as §1, §2, §3
Chain of ZFP 48 RDHT-RSHR-RDER1 (Homo sapiens) (chain, as listed by the source): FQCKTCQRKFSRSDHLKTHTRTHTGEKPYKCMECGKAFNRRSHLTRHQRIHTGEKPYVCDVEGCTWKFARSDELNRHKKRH
In the next series the target is ZFP 33 QSNV2-RSHR-RDER1 (Homo sapiens). On the procedure: as §1, §2, §3
Chain of ZFP 33 QSNV2-RSHR-RDER1 (Homo sapiens) (chain, as listed by the source): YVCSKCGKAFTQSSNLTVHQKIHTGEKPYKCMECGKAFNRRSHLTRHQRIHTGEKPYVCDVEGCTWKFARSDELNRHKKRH
In the next series the target is ZFP 65 RSNR-RDER1-RSHR (Homo sapiens). The procedure:
as §1, §2, §3

The target in a further series is ZFP 64 VSSR-RSHR-ISNR (Homo sapiens). On the procedure:
as §1, §2, §3

A further series has as its target ZFP 62 RDER1-QSSR1-VSTR (Homo sapiens). The procedure: as §1, §2, §3
In another series the target is ZFP 50 RSHR-RDER1-QSNV2 (Homo sapiens). On the procedure: as §1, §2, §3
Chain of ZFP 50 RSHR-RDER1-QSNV2 (Homo sapiens) (chain, as listed by the source): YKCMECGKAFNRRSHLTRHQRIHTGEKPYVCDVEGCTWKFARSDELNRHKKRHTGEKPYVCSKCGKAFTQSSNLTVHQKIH
The target of the next series is ZFP 42 RDHT-QSHR2-QSHT (Homo sapiens). On the procedure:
as §1, §2, §3

The target of another series is ZFP 53 QSHR2-RDHT-CSNR1 (Homo sapiens). The procedure:
as §1, §2, §3

The target of another series is ZFP 39 VSTR-RSNR-QSHR2 (Homo sapiens). On the procedure:
as §1, §2, §3

The target of a further series is ZFP 56 RSNR-VSTR-RSHR (Homo sapiens). The procedure:
as §1, §2, §3

The target of a further series is ZFP 43 QSSR1-QSNR3-QSHR2 (Homo sapiens). The procedure:
as §1, §2, §3

The target of the next series is ZFP 46 HSNK-QSHT-RSNR (Homo sapiens). On the procedure:
as §1, §2, §3

In another series the target is ZFP 45 HSNK-QSNV2-VSSR (Homo sapiens). The procedure:
as §1, §2, §3

Another series deals with ZFP 36 RSNR-VSSR-RSNR (Homo sapiens). The procedure:
as §1, §2, §3

Another series has as its target ZFP 34 VSSR-HSNK-RSNR (Homo sapiens). The procedure:
as §1, §2, §3

Another series addresses ZFP 35 VSSR-QSHT-RSHR (Homo sapiens). The procedure:
as §1, §2, §3

The next series addresses ZFP 55 QSNV2-QSHR2-QSNR3 (Homo sapiens). The procedure: as §1, §2, §3
Another series addresses ZFP 51 VSNV-QSNV2-QSHT (Homo sapiens). The procedure: as §1, §2, §3
Another series concerns the target ZFP 41 QSNR3-RSNR-RSHR (Homo sapiens). On the procedure: as §1, §2, §3
A further series concerns the target ZFP 58 VSNV-QSHR2-VSTR (Homo sapiens). The procedure: as §1, §2, §3
The next series addresses ZFP 47 RSHR-QSHR2-VSTR (Homo sapiens). The procedure: as §1, §2, §3

Chain of ZFP 42 RDHT-QSHR2-QSHT (Homo sapiens) (chain, as listed by the source): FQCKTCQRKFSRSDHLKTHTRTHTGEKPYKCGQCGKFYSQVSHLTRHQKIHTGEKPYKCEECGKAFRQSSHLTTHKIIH
Chain of ZFP 51 VSNV-QSNV2-QSHT (Homo sapiens) (chain, as listed by the source): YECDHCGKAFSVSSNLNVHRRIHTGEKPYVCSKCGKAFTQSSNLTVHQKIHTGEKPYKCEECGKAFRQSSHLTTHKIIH
Chain of ZFP 64 VSSR-RSHR-ISNR (Homo sapiens) (chain, as listed by the source): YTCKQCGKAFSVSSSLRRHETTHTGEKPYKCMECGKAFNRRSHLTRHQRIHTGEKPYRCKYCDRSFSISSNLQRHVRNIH
Chain of ZFP 53 QSHR2-RDHT-CSNR1 (Homo sapiens) (chain, as listed by the source): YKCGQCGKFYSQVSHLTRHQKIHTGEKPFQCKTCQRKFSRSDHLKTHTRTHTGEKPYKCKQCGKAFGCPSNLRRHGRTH
Chain of ZFP 56 RSNR-VSTR-RSHR (Homo sapiens) (chain, as listed by the source): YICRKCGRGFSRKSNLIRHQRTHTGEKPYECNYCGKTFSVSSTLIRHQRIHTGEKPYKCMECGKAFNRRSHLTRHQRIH
Chain of ZFP 49 RSHR-QSNV2-QSHT (Homo sapiens) (chain, as listed by the source): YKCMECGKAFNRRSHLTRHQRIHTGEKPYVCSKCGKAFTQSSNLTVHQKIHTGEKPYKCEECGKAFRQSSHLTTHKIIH
Chain of ZFP 36 RSNR-VSSR-RSNR (Homo sapiens) (chain, as listed by the source): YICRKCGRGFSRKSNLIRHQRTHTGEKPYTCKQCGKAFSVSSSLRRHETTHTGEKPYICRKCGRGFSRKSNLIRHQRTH
Chain of ZFP 34 VSSR-HSNK-RSNR (Homo sapiens) (chain, as listed by the source): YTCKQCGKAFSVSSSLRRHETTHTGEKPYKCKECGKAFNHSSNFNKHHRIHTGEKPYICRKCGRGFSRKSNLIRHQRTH
Chain of ZFP 55 QSNV2-QSHR2-QSNR3 (Homo sapiens) (chain, as listed by the source): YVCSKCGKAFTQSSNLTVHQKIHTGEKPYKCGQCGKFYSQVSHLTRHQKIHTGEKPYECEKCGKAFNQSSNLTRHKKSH
Chain of ZFP 57 QSHR2-CSNR1-QSHT (Homo sapiens) (chain, as listed by the source): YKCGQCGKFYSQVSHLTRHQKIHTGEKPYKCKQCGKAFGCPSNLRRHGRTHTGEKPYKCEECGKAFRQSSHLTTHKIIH
Chain of ZFP 39 VSTR-RSNR-QSHR2 (Homo sapiens) (chain, as listed by the source): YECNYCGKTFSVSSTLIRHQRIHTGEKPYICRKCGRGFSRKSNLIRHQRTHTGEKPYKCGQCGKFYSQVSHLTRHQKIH
Chain of ZFP 43 QSSR1-QSNR3-QSHR2 (Homo sapiens) (chain, as listed by the source): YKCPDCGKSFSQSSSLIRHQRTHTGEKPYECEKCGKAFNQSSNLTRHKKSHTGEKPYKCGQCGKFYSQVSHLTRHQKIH
Chain of ZFP 35 VSSR-QSHT-RSHR (Homo sapiens) (chain, as listed by the source): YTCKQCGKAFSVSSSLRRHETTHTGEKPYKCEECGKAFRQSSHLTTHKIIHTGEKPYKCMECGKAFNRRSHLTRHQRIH
Chain of ZFP 45 HSNK-QSNV2-VSSR (Homo sapiens) (chain, as listed by the source): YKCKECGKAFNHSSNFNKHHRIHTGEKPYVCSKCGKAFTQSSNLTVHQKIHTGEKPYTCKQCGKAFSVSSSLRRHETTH
Chain of ZFP 62 RDER1-QSSR1-VSTR (Homo sapiens) (chain, as listed by the source): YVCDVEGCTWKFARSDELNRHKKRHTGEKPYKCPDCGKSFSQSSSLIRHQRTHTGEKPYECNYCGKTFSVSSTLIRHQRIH
Chain of ZFP 41 QSNR3-RSNR-RSHR (Homo sapiens) (chain, as listed by the source): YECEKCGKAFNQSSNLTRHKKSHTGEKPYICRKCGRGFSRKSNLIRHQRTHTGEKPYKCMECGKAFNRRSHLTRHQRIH
Chain of ZFP 46 HSNK-QSHT-RSNR (Homo sapiens) (chain, as listed by the source): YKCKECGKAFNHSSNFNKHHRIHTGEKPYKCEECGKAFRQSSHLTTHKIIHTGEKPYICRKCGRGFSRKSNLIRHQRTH
Chain of ZFP 65 RSNR-RDER1-RSHR (Homo sapiens) (chain, as listed by the source): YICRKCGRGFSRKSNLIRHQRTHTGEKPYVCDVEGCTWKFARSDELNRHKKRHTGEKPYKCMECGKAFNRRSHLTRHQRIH
Chain of ZFP 47 RSHR-QSHR2-VSTR (Homo sapiens) (chain, as listed by the source): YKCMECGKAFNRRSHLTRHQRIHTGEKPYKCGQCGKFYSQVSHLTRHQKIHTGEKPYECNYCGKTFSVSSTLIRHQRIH
Chain of ZFP 58 VSNV-QSHR2-VSTR (Homo sapiens) (chain, as listed by the source): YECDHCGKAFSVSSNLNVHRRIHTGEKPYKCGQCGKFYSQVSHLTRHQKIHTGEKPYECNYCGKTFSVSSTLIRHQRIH

B1: target 52 (dsDNA)
DNA 1: GAGTGAGGA
DNA 2: TCCTCACTC
B1 displayed an activity with ZFP 52 QSHR2-QSHT-RSNR of 1.6 fold repression.

B2: target 60 (dsDNA)
DNA 1: CAAGTAGAAG
DNA 2: CTTCTACTTG
The molecule B2 gave an activity with ZFP 60 QSNR3-QSSR1-QSNV2 of 1.5 fold repression.

B3: target 49 (dsDNA)
DNA 1: AGAAAAGGG
DNA 2: CCCTTTTCT
As to B3, in the series with ZFP 49 RSHR-QSNV2-QSHT, the activity worked out at 1.6 fold repression.

B4: target 57 (dsDNA)
DNA 1: TGAGACGGAG
DNA 2: CTCCGTCTCA
In the case of B4, the activity with ZFP 57 QSHR2-CSNR1-QSHT turned out to be 1.5 fold repression.

B5: target 48 (dsDNA)
DNA 1: GCGGGGAGGG
DNA 2: CCCTCCCCGC
In turn, B5 gave an activity with ZFP 48 RDHT-RSHR-RDER1 of 1.6 fold repression.

B6: target 33 (dsDNA)
DNA 1: GTGGGGAAAA
DNA 2: TTTTCCCCAC
Molecule B6 yielded an activity in the series with ZFP 33 QSNV2-RSHR-RDER1 of 1.9 fold repression.

B7: target 65 (dsDNA)
DNA 1: GGGGCGGAG
DNA 2: CTCCGCCCC
As for B7, the activity with ZFP 65 RSNR-RDER1-RSHR worked out at 1.5 fold repression.

B8: target 64 (dsDNA)
DNA 1: GATGGGGTTT
DNA 2: AAACCCCATC
In turn, B8 came in with an activity with ZFP 64 VSSR-RSHR-ISNR of 1.5 fold repression.

B9: target 62 (dsDNA)
DNA 1: GCTGCAGCGT
DNA 2: ACGCTGCAGC
B9 showed an activity with ZFP 62 RDER1-QSSR1-VSTR of 1.5 fold repression.

B10: target 50 (dsDNA)
DNA 1: AAAGTGGGGA
DNA 2: TCCCCACTTT
Turning to B10, the activity with ZFP 50 RSHR-RDER1-QSNV2 was determined as 1.6 fold repression.

B11: target 42 (dsDNA)
DNA 1: AGAGGAAGGT
DNA 2: ACCTTCCTCT
Take B11: the activity with ZFP 42 RDHT-QSHR2-QSHT turned out to be 1.7 fold repression.

B12: target 53 (dsDNA)
DNA 1: GACAGGGGAG
DNA 2: CTCCCCTGTC
B12 came in with an activity with ZFP 53 QSHR2-RDHT-CSNR1 of 1.6 fold repression.

B13: target 39 (dsDNA)
DNA 1: GGAGAGGCTC
DNA 2: GAGCCTCTCC
In turn, B13 displayed an activity with ZFP 39 VSTR-RSNR-QSHR2 of 1.8 fold repression.

B14: target 56 (dsDNA)
DNA 1: GGGGCTGAGG
DNA 2: CCTCAGCCCC
Consider B14, for which the activity with ZFP 56 RSNR-VSTR-RSHR came out at 1.5 fold repression.

B15: target 43 (dsDNA)
DNA 1: GGAGAAGTAG
DNA 2: CTACTTCTCC
Regarding B15, the activity with ZFP 43 QSSR1-QSNR3-QSHR2 was 1.7 fold repression.

B16: target 46 (dsDNA)
DNA 1: GAGAGAGAC
DNA 2: GTCTCTCTC
For the molecule B16, in the series with ZFP 46 HSNK-QSHT-RSNR, the activity was determined as 1.7 fold repression.

B17: target 45 (dsDNA)
DNA 1: GTTCAAGAC
DNA 2: GTCTTGAAC
In the case of B17, the activity with ZFP 45 HSNK-QSNV2-VSSR worked out at 1.7 fold repression.

B18: target 36 (dsDNA)
DNA 1: GAGGTTGAGG
DNA 2: CCTCAACCTC
Molecule B18 came in with an activity with ZFP 36 RSNR-VSSR-RSNR of 1.8 fold repression.

B19: target 34 (dsDNA)
DNA 1: GAGGACGTG
DNA 2: CACGTCCTC
In the series with ZFP 34 VSSR-HSNK-RSNR, B19 displayed an activity of 1.9 fold repression.

B20: target 35 (dsDNA)
DNA 1: GGGTGAGTG
DNA 2: CACTCACCC
On to B20, for which, in the series with ZFP 35 VSSR-QSHT-RSHR, the activity worked out at 1.9 fold repression.

B21: target 55 (dsDNA)
DNA 1: GAAGGAAAAT
DNA 2: ATTTTCCTTC
B21 returned an activity with ZFP 55 QSNV2-QSHR2-QSNR3 of 1.6 fold repression.

B22: target 51 (dsDNA)
DNA 1: AGAAAAAATA
DNA 2: TATTTTTTCT
In the series with ZFP 51 VSNV-QSNV2-QSHT, B22 registered an activity of 1.6 fold repression.

B23: target 41 (dsDNA)
DNA 1: GGGGAGGAAA
DNA 2: TTTCCTCCCC
In turn, B23 came in with an activity in the series with ZFP 41 QSNR3-RSNR-RSHR of 1.7 fold repression.

B24: target 58 (dsDNA)
DNA 1: GCTGGAAATT
DNA 2: AATTTCCAGC
As to B24, the activity with ZFP 58 VSNV-QSHR2-VSTR was 1.5 fold repression.

B25: target 47 (dsDNA)
DNA 1: GCTGGAGGGG
DNA 2: CCCCTCCAGC
In the series with ZFP 47 RSHR-QSHR2-VSTR, B25 yielded an activity of 1.7 fold repression.

The values above are taken from patent US20030165997, “Zinc finger domain libraries” (published 2003).
